Data as given in patent US20230151079A1 (FUNDA O BUTANTAN, published 2023).

Assays:
thrombin [1] = molecular target: T1, thrombin (Homo sapiens (Human), UniProt P00734 315-363; P00734 364-622); test: cell-based or functional assay
thrombin [2] = molecular target: T1, thrombin; test: enzyme kinetics, S-2238 hydrolysis by thrombin 0.1 nM; apparent Km from Lineweaver-Burk plots against inhibitor concentration; competing inhibition
thrombin [3] = molecular target: T1, thrombin; test: calculated from kon and koff (equation 7)
thrombin [4] = molecular target: T1, thrombin; test: enzyme kinetics, S-2238 hydrolysis by thrombin; nonlinear regression for competing enzyme inhibition
thrombin [5] = molecular target: T1, thrombin; test: enzyme kinetics, S-2238 hydrolysis by thrombin; Morrison tight binding equation
thrombin [6] = molecular target: T1, thrombin; test: progress curves of S-2238 hydrolysis by thrombin; kobs plotted against recombinant protein concentration

| Binder | thrombin inhibition activity retained, relative to non-hydrolyzed recombinant protein (S-2238 hydrolysis, thrombin 0.1 nM, fragment 100 pM) (thrombin [1]) | Ki (thrombin [2]) [nM] | Ki (thrombin [3]) [nM] | Ki (thrombin [4]) [nM] | IC50 of thrombin inhibition (hydrolysis of S-2238 by thrombin 0.1 nM) (thrombin [1]) [nM] | Ki (thrombin [5]) [nM] | koff (thrombin [6]) [s⁻¹] | kon (thrombin [6]) [M⁻¹ s⁻¹] |
| --- | --- | --- | --- | --- | --- | --- | --- | --- |
| GKPQGHPHDALEARSDAVHTAVPKMPKGGHGGFEPIPIDYDERALEAR [Recombinant protein fragment of HPLC peak H1 generated by factor Xa (SEQ ID NO: 10)] | ~50 % of preserved recombinant protein |  |  |  |  |  |  |  |
| Recombinant protein (SEQ ID NO: 1), modified from sculptin of the tick Amblyomma cajennense (other, Expressed in E. coli BL21(DE3) from pET28a, without signal peptide and with a C-terminal polyhistidine tail; Mass 16990.90 Da by MALDI-TOF; also called Scpt; preserved recombinant protein) GKPQGHPHDALEARSDAVHTAVPKMPKGGHGGFEPIPIDYDERALEARSDAVHTAVPKMPKGGLGGFEPIPIDYDERALEARSDAVHTAVPKMPKGGHGGFEPIPIDYDERALEARSDAVHTAVPKMPKGGHGGFEPIPIDYDERALHALEHHHHHH |  | 0.0185 | 0.0161 | 0.0181 | 0.0866 | 0.0195 | 0.00065 | 4.04e+07 |
